Non-standard residues stand in square brackets, D forms with d. Primed or numbered codes have the meaning given here. No end group written: not given here. *: point of attachment. tBuAla = CC(C)(C)C[C@H](N)C(=O)O; 4Pal = N[C@@H](Cc1ccncc1)C(=O)O; d(pGlu) = O=C1CC[C@H](C(=O)O)N1; Cha = N[C@@H](CC1CCCCC1)C(=O)O; Gly(N-CH2CH2OH) = O=C(O)CNCCO; Isobutyryl = CC(C)C(=O)*; NMeA = CN[C@@H](C)C(=O)O; PEG2′ = not defined here; Abu = CC[C@H](N)C(=O)O; Nleu = CC(C)CNCC(=O)O; Aib = CC(C)(N)C(=O)O; Aoc = NCCCCCCCC(=O)O; Inp = O=C(O)C1CCNCC1; Ahx = NCCCCCC(=O)O
Key:
human Y2 receptor [1] = molecular target: T1, human Y2 receptor (Homo sapiens, UniProt P49146); test: Human Y2 Receptor G Protein Binding Assay (GBA), [35S]GTPγS; format: biochemical; conditions: EC50 of test compound/EC50 of PYY(3-36) (PYY3-36 taken as 1), hY2R/CHO membrane fraction
T1 construct: expressed in transfected cells; membrane fraction
T1 sequence (P49146 1-381): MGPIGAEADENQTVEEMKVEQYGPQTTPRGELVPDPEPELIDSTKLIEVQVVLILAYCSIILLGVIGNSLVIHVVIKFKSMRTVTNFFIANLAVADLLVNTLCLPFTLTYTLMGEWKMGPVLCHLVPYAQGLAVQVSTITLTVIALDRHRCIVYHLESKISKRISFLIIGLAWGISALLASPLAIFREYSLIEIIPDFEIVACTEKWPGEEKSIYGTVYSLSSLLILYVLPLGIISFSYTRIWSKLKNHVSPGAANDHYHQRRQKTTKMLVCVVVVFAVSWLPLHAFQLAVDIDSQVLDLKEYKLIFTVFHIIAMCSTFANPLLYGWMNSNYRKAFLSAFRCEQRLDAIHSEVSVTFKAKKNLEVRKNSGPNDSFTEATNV
Outline: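 Agonism measured as [35S]GTPγS binding, read by GF/C filtration and scintillation counting after 120 min at room temperature, using human Y2 membranes at 1 μg protein/mL in pH 7.4 Tris/MgCl2/NaCl/GDP buffer. Compound serially diluted 100 μM–1 nM; EC50 normalized to PYY(3-36) (ratio = compound/PYY).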

human Y2 receptor [2] = molecular target: T1, human Y2 receptor; test: Receptor Binding Assay (RBA) for Human Y2, [125I]-PYY displacement on hY2R/CHO membrane fraction; conditions: IC50 of test compound/IC50 of PYY(3-36) (PYY(3-36) taken as 1)
Outline: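 Read-out is [125I]-PYY displacement from membranes of CHO/dhfr− cells stably transfected with human Y2R. Membranes were obtained by disrupting cells in a buffer of 10 mM NaHCO3, 5 mM EDTA and protease inhibitors.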

Substance | GBA EC50 Ratio (human Y2 receptor [1]) | RBA IC50 Ratio (human Y2 receptor [2])
Isobutanoyl-[D-Pro24, Pya(4)26, Cha27,36, Aib28,31, Lys30]-PYY(23-36) (Isobutyryl-S[dP]R[4Pal][Cha][Aib]NK[Aib]TRQR[Cha]-NH2; SMILES CC(C)C(=O)N[C@@H](CO)C(=O)N1CCC[C@@H]1C(=O)N[C@@H](CCCNC(=N)N)C(=O)N[C@@H](Cc1ccncc1)C(=O)N[C@@H](CC1CCCCC1)C(=O)NC(C)(C)C(=O)N[C@@H](CC(N)=O)C(=O)N[C@@H](CCCCN)C(=O)NC(C)(C)C(=O)N[C@H](C(=O)N[C@@H](CCCNC(=N)N)C(=O)N[C@@H](CCC(N)=O)C(=O)N[C@@H](CCCNC(=N)N)C(=O)N[C@@H](CC1CCCCC1)C(N)=O)[C@@H](C)O) [compound No. 212] | 0.89 | 0.79
Isobutanoyl-[Glu23, D-Pro24, Pya(4)26, Cha27,36, Aib28,31, Lys30]-PYY(23-36) (Isobutyryl-E[dP]R[4Pal][Cha][Aib]NK[Aib]TRQR[Cha]-NH2; SMILES CC(C)C(=O)N[C@@H](CCC(=O)O)C(=O)N1CCC[C@@H]1C(=O)N[C@@H](CCCNC(=N)N)C(=O)N[C@@H](Cc1ccncc1)C(=O)N[C@@H](CC1CCCCC1)C(=O)NC(C)(C)C(=O)N[C@@H](CC(N)=O)C(=O)N[C@@H](CCCCN)C(=O)NC(C)(C)C(=O)N[C@H](C(=O)N[C@@H](CCCNC(=N)N)C(=O)N[C@@H](CCC(N)=O)C(=O)N[C@@H](CCCNC(=N)N)C(=O)N[C@@H](CC1CCCCC1)C(N)=O)[C@@H](C)O) [compound No. 214] | 2.0 | 1.9
Isobutanoyl-[Glu23, D-Pro24, Pya(4)26, Cha27,36, Leu(Me)28, Lys30, Aib31]-PYY(23-36) (Isobutyryl-E[dP]R[4Pal][Cha][tBuAla]NK[Aib]TRQR[Cha]-NH2; SMILES CC(C)C(=O)N[C@@H](CCC(=O)O)C(=O)N1CCC[C@@H]1C(=O)N[C@@H](CCCNC(=N)N)C(=O)N[C@@H](Cc1ccncc1)C(=O)N[C@@H](CC1CCCCC1)C(=O)N[C@@H](CC(C)(C)C)C(=O)N[C@@H](CC(N)=O)C(=O)N[C@@H](CCCCN)C(=O)NC(C)(C)C(=O)N[C@H](C(=O)N[C@@H](CCCNC(=N)N)C(=O)N[C@@H](CCC(N)=O)C(=O)N[C@@H](CCCNC(=N)N)C(=O)N[C@@H](CC1CCCCC1)C(N)=O)[C@@H](C)O) [compound No. 170] | 0.88 | 0.43
N-4-Pyridiniyl-[Pic(4)23, D-Pro24, Cha27,28,36, Aib31]-PYY(23-36) ([Inp][dP]RH[Cha][Cha]NL[Aib]TRQR[Cha]-NH2; not fully specified (N-terminus); printed as N-4-Pyridiniyl-[Pic(4)23, D-Pro24, Cha27,28,36, Aib31]-PYY(23-36)) [compound No. 125] | 3.4 | 4
Piperidinocarbonyl-[Glu23, D-Pro24, Pya(4)26, Cha27,36, Aib28,31, Lys30]-PYY(23-36) (piperidinocarbonyl-E[dP]R[4Pal][Cha][Aib]NK[Aib]TRQR[Cha]-NH2) [compound No. 193] | 2.4 | 3.3
[(PEG2)23, D-Pro24, Cha27,28,36, Aib31]-PYY(23-36) ([PEG2′][dP]RH[Cha][Cha]NL[Aib]TRQR[Cha]-NH2) [compound No. 118] | 0.9 | 0.9
[Acp23, D-Pro24, Pya(4)26, Cha27,36, Aib28,31, Lys30]-PYY(23-36) (Ac-[Ahx][dP]R[4Pal][Cha][Aib]NK[Aib]TRQR[Cha]-NH2) [compound No. 304] | 1.1 | 0.32
[Aoc(8)23, D-Pro24, Cha27,28,36, Aib31]-PYY(23-36) ([Aoc][dP]RH[Cha][Cha]NL[Aib]TRQR[Cha]-NH2; N-terminus assumed; SMILES CC(C)C[C@H](NC(=O)[C@H](CC(N)=O)NC(=O)[C@H](CC1CCCCC1)NC(=O)[C@H](CC1CCCCC1)NC(=O)[C@H](Cc1c[nH]cn1)NC(=O)[C@H](CCCNC(=N)N)NC(=O)[C@H]1CCCN1C(=O)CCCCCCCN)C(=O)NC(C)(C)C(=O)N[C@H](C(=O)N[C@@H](CCCNC(=N)N)C(=O)N[C@@H](CCC(N)=O)C(=O)N[C@@H](CCCNC(=N)N)C(=O)N[C@@H](CC1CCCCC1)C(N)=O)[C@@H](C)O) [compound No. 117] | 1.9 | 2.1
[D-Ser23, Abu26, Cha27,28,36, Aib31]-PYY(23-36) ([dS]LR[Abu][Cha][Cha]NL[Aib]TRQR[Cha]-NH2; N-terminus assumed; SMILES CC[C@H](NC(=O)[C@H](CCCNC(=N)N)NC(=O)[C@H](CC(C)C)NC(=O)[C@H](N)CO)C(=O)N[C@@H](CC1CCCCC1)C(=O)N[C@@H](CC1CCCCC1)C(=O)N[C@@H](CC(N)=O)C(=O)N[C@@H](CC(C)C)C(=O)NC(C)(C)C(=O)N[C@H](C(=O)N[C@@H](CCCNC(=N)N)C(=O)N[C@@H](CCC(N)=O)C(=O)N[C@@H](CCCNC(=N)N)C(=O)N[C@@H](CC1CCCCC1)C(N)=O)[C@@H](C)O) [compound No. 85] | 11 | 15
[D-pGlu24, Pya(4)26, Cha27,36, Aib28,31, Lys30]-PYY(24-36) ([d(pGlu)]R[4Pal][Cha][Aib]NK[Aib]TRQR[Cha]-NH2; SMILES C[C@@H](O)[C@H](NC(=O)C(C)(C)NC(=O)[C@H](CCCCN)NC(=O)[C@H](CC(N)=O)NC(=O)C(C)(C)NC(=O)[C@H](CC1CCCCC1)NC(=O)[C@H](Cc1ccncc1)NC(=O)[C@H](CCCNC(=N)N)NC(=O)[C@H]1CCC(=O)N1)C(=O)N[C@@H](CCCNC(=N)N)C(=O)N[C@@H](CCC(N)=O)C(=O)N[C@@H](CCCNC(=N)N)C(=O)N[C@@H](CC1CCCCC1)C(N)=O) [compound No. 250] | 1.1 | 2
[Lys(Ac)23, D-Pro24, Cha27,28,36, Aib31]-PYY(23-36) (K(Ac)[dP]RH[Cha][Cha]NL[Aib]TRQR[Cha]-NH2; N-terminus assumed; SMILES CC(=O)NCCCC[C@H](N)C(=O)N1CCC[C@@H]1C(=O)N[C@@H](CCCNC(=N)N)C(=O)N[C@@H](Cc1c[nH]cn1)C(=O)N[C@@H](CC1CCCCC1)C(=O)N[C@@H](CC1CCCCC1)C(=O)N[C@@H](CC(N)=O)C(=O)N[C@@H](CC(C)C)C(=O)NC(C)(C)C(=O)N[C@H](C(=O)N[C@@H](CCCNC(=N)N)C(=O)N[C@@H](CCC(N)=O)C(=O)N[C@@H](CCCNC(=N)N)C(=O)N[C@@H](CC1CCCCC1)C(N)=O)[C@@H](C)O) [compound No. 163] | 2.5 | 5.4
[MeAla22, D-Pro24, Cha27,28,36, Aib31]-PYY(22-36) ([NMeA]S[dP]RH[Cha][Cha]NL[Aib]TRQR[Cha]-NH2; N-terminus assumed; SMILES CN[C@@H](C)C(=O)N[C@@H](CO)C(=O)N1CCC[C@@H]1C(=O)N[C@@H](CCCNC(=N)N)C(=O)N[C@@H](Cc1c[nH]cn1)C(=O)N[C@@H](CC1CCCCC1)C(=O)N[C@@H](CC1CCCCC1)C(=O)N[C@@H](CC(N)=O)C(=O)N[C@@H](CC(C)C)C(=O)NC(C)(C)C(=O)N[C@H](C(=O)N[C@@H](CCCNC(=N)N)C(=O)N[C@@H](CCC(N)=O)C(=O)N[C@@H](CCCNC(=N)N)C(=O)N[C@@H](CC1CCCCC1)C(N)=O)[C@@H](C)O) [compound No. 123] | 0.72 | 0.6
[N(2-hydroxyethyl)Gly23, D-Pro24, Cha27,28,36, Aib31]-PYY(23-36) ([Gly(N-CH2CH2OH)][dP]RH[Cha][Cha]NL[Aib]TRQR[Cha]-NH2; N-terminus assumed; SMILES CC(C)C[C@H](NC(=O)[C@H](CC(N)=O)NC(=O)[C@H](CC1CCCCC1)NC(=O)[C@H](CC1CCCCC1)NC(=O)[C@H](Cc1c[nH]cn1)NC(=O)[C@H](CCCNC(=N)N)NC(=O)[C@H]1CCCN1C(=O)CNCCO)C(=O)NC(C)(C)C(=O)N[C@H](C(=O)N[C@@H](CCCNC(=N)N)C(=O)N[C@@H](CCC(N)=O)C(=O)N[C@@H](CCCNC(=N)N)C(=O)N[C@@H](CC1CCCCC1)C(N)=O)[C@@H](C)O) [compound No. 134] | 1.2 | 2.0
[N(iBu)Gly23, D-Pro24, Cha27,28,36, Aib31]-PYY(23-36) ([Nleu][dP]RH[Cha][Cha]NL[Aib]TRQR[Cha]-NH2; N-terminus assumed; SMILES CC(C)CNCC(=O)N1CCC[C@@H]1C(=O)N[C@@H](CCCNC(=N)N)C(=O)N[C@@H](Cc1c[nH]cn1)C(=O)N[C@@H](CC1CCCCC1)C(=O)N[C@@H](CC1CCCCC1)C(=O)N[C@@H](CC(N)=O)C(=O)N[C@@H](CC(C)C)C(=O)NC(C)(C)C(=O)N[C@H](C(=O)N[C@@H](CCCNC(=N)N)C(=O)N[C@@H](CCC(N)=O)C(=O)N[C@@H](CCCNC(=N)N)C(=O)N[C@@H](CC1CCCCC1)C(N)=O)[C@@H](C)O) [compound No. 133] | 2.4 | 5.8
